Source: publication PMC7070470, “Thermostable Tannase from Aspergillus Niger and Its Application in the Enzymatic Extraction of Green Tea” (Molecules, 2020)

Substrate: CCCOC(=O)c1cc(O)c(O)c(O)c1
Experiment: purified protein
Type: biochemical, Aspergillus niger
Details: standard assay condition

B1: rAntan1 (tannase from A. niger FJ0118, Antan1 without signal peptide) (Aspergillus niger CBS 513.88) (protein)
chain: ATPSTLAELCTDSIVKAALPPSEFIQGITIDSDSVTTEVVTNSSVSSEFYPSATINYCNVTFAYSHDGIDGDQVLLEIWLPAPTDFQNRWLSTGGGGYAINSGDQSLPGGVMYGAASGMTDGGFGGFSNNADTAMLLANGTLDYETLYMFAYKAHRELSLIGKALTRNVYGMSDSDKLYAYYQGCSEGGREGWSQVQRFGDEWDGAIIGAPAFRWSFQQTQHLYSNVVEKTLDYYPPPCELDKIVNETIAACDAMDGKVDWVVARTDLCLLDFDISTIEGKPYSCAASRGTPAQNGTVSAKGIEVAKTIINGLHDSQGRRVYFSYQPTAAFDDAETQYNSTTGQWGLDIDQLGGEYIALLVDKNGTTLDSLDGVTYDTLKDWMISGLQEYYSTLQTTWPDLTPFHEAGGKVIHFHGDADFSIPTAASIRYWESVRSIMYPNQDYNSSAEALNEWYRLYTVPGAGHCATNDAMPNGPFPQTNMAVMIDWVENGVVPTTLNATVLQGENEGQNQQLCAWPLRPLWTNNGTTMECVYNQRSIDSWHYDLDAVPMPVY
notes: mature form, predicted 20-residue signal peptide removed; secreted from Pichia pastoris SMD1168 (pPIC9K), DEAE-Sepharose purified; 1725 bp ORF, 575 residues printed
- Km: 73 µM
- kcat (substrate range printed as 0.05–1.0 M): 1060 s⁻¹
